Results taken from article PMC9630439.
“And” between values parts separate entries of the source, which are not always exact repeats. Equal entries are not always repeated.

Assays:
[1] = molecular target: fully assembled GPa3b17 TCR (TCRαβ/CD3δγε2ζ2 complex, CD3 cytosolic domains truncated, CD3-δ tagged with GFP2) (human) (UniProt P07766); assay: flow cytometry on cells; CHO cells transduced with lentivirus combinations, stained with Alexa Fluor 647-labelled gp100/HLA-A2, 30 min at 4 °C in the dark
[2] = molecular target: GPa3b17 TCR complex expressed without CD3-ζ (TCR-αβ/CD3-δγε2) (human) (UniProt P07766); assay: as above

## gp100/HLA-A2 (soluble gp100 peptide / HLA-A*02:01 / β2-microglobulin monomer with C-terminal HPC-4 epitope) (from UniProt P61769 22-119) (peptide-MHC)
[1]
  median fluorescence intensity following pMHC staining: 135000 and 144000
[2]
  median fluorescence intensity following pMHC staining: 116000
